In paper PMC6030874:

Molecular target: EGFP-MeCP2 R306C (mouse)

Q: With “NCoR1 (from UniProt O75376 1-2440) (natural protein)” as the substance, how does the methylation-dependent transcriptional repression of a luciferase reporter (untagged MeCP2 e1 in Mecp2-/y, Mbd2-/- mouse tail fibroblasts), relative to WT MeCP2 read?
A: 25 % of WT
